Reference: patent US20240084003A1 (SIMCERE ZAIMING PHARMACEUTICAL, published 2024)

T1: monkey CD22 protein (ACROBiosystems, catalog number SI2-R52Ha) (monkey, UniProt F6W485 20-688)
T1 construct: commercial protein; also called monkey CD22-ECD; monkey CD22-ECD-His
T1 sequence: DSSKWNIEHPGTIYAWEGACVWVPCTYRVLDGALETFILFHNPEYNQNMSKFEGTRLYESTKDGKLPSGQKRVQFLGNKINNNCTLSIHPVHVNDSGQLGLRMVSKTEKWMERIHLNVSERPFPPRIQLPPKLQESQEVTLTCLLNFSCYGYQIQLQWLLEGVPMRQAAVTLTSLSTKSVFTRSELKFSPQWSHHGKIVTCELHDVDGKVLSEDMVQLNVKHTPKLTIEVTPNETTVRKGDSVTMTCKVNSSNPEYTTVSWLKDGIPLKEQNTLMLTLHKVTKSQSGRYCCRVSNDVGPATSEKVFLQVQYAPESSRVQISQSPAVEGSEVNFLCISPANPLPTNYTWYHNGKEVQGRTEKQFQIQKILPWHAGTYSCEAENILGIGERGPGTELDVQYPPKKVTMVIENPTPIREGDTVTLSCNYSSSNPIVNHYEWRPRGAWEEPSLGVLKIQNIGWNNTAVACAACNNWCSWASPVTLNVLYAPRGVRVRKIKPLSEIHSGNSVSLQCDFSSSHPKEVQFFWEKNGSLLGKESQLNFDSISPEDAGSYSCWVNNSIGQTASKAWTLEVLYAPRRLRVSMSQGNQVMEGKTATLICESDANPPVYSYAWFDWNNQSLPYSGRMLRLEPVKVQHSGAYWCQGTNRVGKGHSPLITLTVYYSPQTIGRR


Legend:
[1] = molecular target: T2, CD22 on cynomolgus monkey peripheral blood B cells (cynomolgus monkey (Macaca fascicularis)); test: FACS, cynomolgus PBMC, CD20+ B cells, antibody 10 nM
T2 construct: whole, on cells; also called cynomolgus monkey B cells
From the text: (§1) The monkey peripheral blood mononuclear cells were extracted from fresh cynomolgus monkey peripheral blood (purchased from Shanghai Medicilon Inc.) according to the instructions of Ficoll-Paque Plus (purchased from GE Healthcare, catalog number: 171440-02). After the cell suspension was centrifuged, the cells were resuspended in PBS containing 1% BSA, and then the cells were counted. At the same time, the murine antibody Brilliant Violet 605 anti-human CD20 (catalog number: 302334, purchased from Biolegend) with monkey CD20 cross-binding activity and the chimeric antibodies to be tested (1 nM, 10 nM and 100 nM) were added and incubated at room temperature for 1 hour. After washing the cells three times, APC-labeled secondary antibody anti-human IgG Fc (catalog number: 409306, purchased from Biolegend) was added. After incubation at room temperature in the dark for 30 minutes, the cells were washed 5 times, gently resuspended with PBS containing 1% BSA, and detected and analyzed by FACS (FACS Canto™, purchased from BD Company). Wherein CD20 was used as a marker of B cells, and the CD20-positive B cell population was gated, the proportion of chimeric antibody positive cells was analyzed, and the proportion of chimeric antibody positive cell population to B cell population was calculated after treatments with the chimeric antibodies at the concentrations of 100 nM, 10 nM and 1 nM, respectively. The scatter plot of double-stained cells by Brilliant Violet 605-labeled CD20 and APC secondary antibody indirectly labeled chimeric antibody is shown in FIG. 10A-FIG. 10B (under the condition of 1 nM of chimeric antibody concentration).

[2] = molecular target: T1, monkey CD22 protein (ACROBiosystems, …); test: ELISA, coated monkey CD22 protein, antibody 0.001 nM
Procedure: (§2) In order to detect the binding activity of CD22 human-murine chimeric antibodies to CD22 protein, the purified human CD22-ECD-His protein obtained in Example 2 was diluted with PBS to a final concentration of 2 μg/mL, and then added to 96-well ELISA plate at 100 μl/well. The plate was sealed with plastic film and incubated overnight at 4° C., the plate was washed 2 times with PBS the next day, and then a blocking solution [PBS+2% (w/w) BSA] was added for blocking at room temperature for 2 hours. […] After incubation at 37° C. for 2 hours, the plate was washed 3 times with PBS. HRP (horseradish peroxidase)-labeled secondary antibody (purchased from Sigma, catalog number: A0170) was added, and incubated at 37° C. for 2 hours, and the plate was washed 5 times with PBS. TMB substrate was added at 50 μl/well, and incubated at room temperature for 30 minutes, then a stop solution (1.0 N HCl) was added at 50 μl/well.
(§3) In order to detect the species cross-binding activity of the chimeric antibodies, an ELISA plate was coated with commercial murine CD22 protein (ACROBiosystems, catalog number: SI2-M52Ha) and monkey CD22 protein (ACROBiosystems, catalog number: SI2-R52Ha), respectively, and the ELISA detection was performed according to the method in Example 5.1.

[3] = molecular target: T1, monkey CD22 protein (ACROBiosystems, …); test: ELISA, coated monkey CD22 protein, antibody 10 nM
Procedure: as §2, §3

[4] = molecular target: T1, monkey CD22 protein (ACROBiosystems, …); test: ELISA, coated monkey CD22 protein, antibody 0.0001 nM
Procedure: as §2, §3

[5] = molecular target: T2, CD22 on cynomolgus monkey peripheral …; test: FACS, cynomolgus PBMC, CD20+ B cells, antibody 1 nM
From the text: as §1

[6] = molecular target: T1, monkey CD22 protein (ACROBiosystems, …); test: ELISA, coated monkey CD22 protein, antibody 0.01 nM
Procedure: as §2, §3

[7] = molecular target: T1, monkey CD22 protein (ACROBiosystems, …); test: ELISA, coated monkey CD22 protein, antibody 0.00001 nM
Procedure: as §2, §3

[8] = molecular target: T1, monkey CD22 protein (ACROBiosystems, …); test: ELISA, coated monkey CD22 protein, antibody 0.1 nM
Procedure: as §2, §3

[9] = molecular target: T2, CD22 on cynomolgus monkey peripheral …; test: FACS, cynomolgus PBMC, CD20+ B cells, antibody 100 nM
From the text: as §1

[10] = molecular target: T1, monkey CD22 protein (ACROBiosystems, …); test: ELISA, coated monkey CD22 protein, antibody 100 nM
Procedure: as §2, §3

Proportion of chimeric antibody positive cells to B cells (%) [1] [%]	OD450 [2] [OD450]	OD450 [3] [OD450]	OD450 [4] [OD450]	Proportion of chimeric antibody positive cells to B cells (%) [5] [%]	OD450 [6] [OD450]	OD450 [7] [OD450]	OD450 [8] [OD450]	Proportion of chimeric antibody positive cells to B cells (%) [9] [%]	OD450 [10] [OD450]	Binder
16	0.05	1.03	0.05	19	0.07	0.05	0.27	22	1.37	F2.99.1 (antibody, human IgG1, lambda, V domains shown, human-murine chimeric IgG1 lambda; VL name legible) VH: QVTLKESGPGILQPSQTLSLTCSFSGFSLSTFPMGVGWIRQPSGKGLEWLAHIWWDDDEYYNPVLKSRLTISKDTSKKQVYLRIANVDTVDTATYYCTRANWDRWYFDVWGTGTTVTVSS VL: QLVLTQSSSASFSLGASAKLTCTLSRQHSAYTIEWYQQQPLKPPKYVMEVKKDGSHSTGDGIPDRFSGSSSGADRYLSISNIQPEDEAIYICGVGDTIKEHFVFGGGTKVTVLG
20	0.09	1.65	0.07	20	0.25	0.07	0.95	23	2.42	F2.42.9 (antibody, human IgG1, lambda, V domains shown, human-murine chimeric IgG1 lambda; VL name legible) VH: QVTLKESGPGILQPSQTLSLTCSFSGFSLSTFDRGVGWIRQPSGKGLEWLAHIWWNDKKFYNPVLKSRLTISKDTSKNQVFLTIANVDSADTATYSCARIVWDKYYFDYWGQGIPLTVSS VL: QLVLTQSSSASFSLGASAKLTCTLSSQHSAYTIEWYQQQPLKPPKFVMDLKKDGSHSTGDGIPARFSGSSSGADRYLTISNIQPEDEAIYICGVGDTIKEQYVFGGGTKVTVLG
18	0.06	0.08	0.06	19	0.05	0.06	0.06	35	0.2	F1.280.1 (antibody, human IgG1, kappa, V domains shown, human-murine chimeric IgG1 kappa) VH: QIQLVQSGPELKKPGETVKISCKASGYTFTTYGMSWVKQTPGKGLTWMGWINTDSGVPTYADDFKRRFAFSLEASATTAYLQINNLKNEDTATYFCARGGPDYWGQGTTLTVSS VL: DILLTQSPATLSVTPGETVSLSCRASQSIYKNLHWYHQKSHRSPRLLIKYASDSISGIPSRFTGSGSGTNFTLSINSVKPEDEGIYYCLQGYIVPLTFGAGTKLELKR
